Results: publication PMC5465037

Molecular target: wild-type desmin, human (human) (UniProt P17661)
Test: co-sedimentation

A percent of desmin pelleted at 22 °C of 83.8%, a percent of desmin pelleted at 37 °C of 93.3% and a percent of desmin pelleted at 44 °C of 94.3% were found for “wild-type desmin, human (from UniProt P17661 1-470) (natural protein)” in this work.
